# According to the supplement of paper PMC9112550, “Optimization of the antimicrobial peptide Bac7 by deep mutational scanning” (BMC Biology, 2022):
# Test system: Escherichia coli TOP10
# Assay: shrunken log2 fold change of peptide-encoding DNA abundance (4.5 h post-induction vs induction); higher = less antimicrobial activity (less host growth inhibition)
# Conditions: time post-induction: 4.5 h; library: site-saturation at positions 5, 18, 19, 20
# 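Also: peptides expressed intracellularly from a pBAD plasmid library in pooled LB shake-flask culture, induced with 0.3% L-arabinose, DNA abundance read by NGS, three biological replicates, DESeq2 with apeglm shrinkage.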
row,Sequence,shrunken log2 fold change
1,RRIRNRPPRLPRPRPRPSAWPRP,-0.135
2,RRIRVRPPRLPRPRPRPRVLPRP,0.0884
3,RRIRDRPPRLPRPRPRPGDTPRP,-0.11
4,RRIRCRPPRLPRPRPRPWCTPRP,0.023
5,RRIRDRPPRLPRPRPRPQIYPRP,-0.114
6,RRIRGRPPRLPRPRPRPDLIPRP,0.87
7,RRIRTRPPRLPRPRPRPFDWPRP,0.0371
8,RRIRKRPPRLPRPRPRPCSPPRP,-0.102
9,RRIRHRPPRLPRPRPRPNMRPRP,0.0719
10,RRIRIRPPRLPRPRPRPRDGPRP,0.575
11,RRIRVRPPRLPRPRPRPDCGPRP,-0.0382
12,RRIRWRPPRLPRPRPRPALNPRP,0.801
13,RRIRARPPRLPRPRPRPRYHPRP,-0.135
14,RRIRTRPPRLPRPRPRPQLAPRP,0.129
15,RRIRLRPPRLPRPRPRPADEPRP,0.167
16,RRIRLRPPRLPRPRPRPVSGPRP,0.525
17,RRIRMRPPRLPRPRPRPYICPRP,-0.201
18,RRIRDRPPRLPRPRPRPPWWPRP,0.461
19,RRIRARPPRLPRPRPRPKQDPRP,0.734
20,RRIRYRPPRLPRPRPRPAVMPRP,-0.231
21,RRIRARPPRLPRPRPRPDPVPRP,0.688
22,RRIRLRPPRLPRPRPRPEGNPRP,-0.149
23,RRIRARPPRLPRPRPRPPLGPRP,0.671
24,RRIRFRPPRLPRPRPRPDLKPRP,0.166
25,RRIRCRPPRLPRPRPRPDLCPRP,-0.047

row,Sequence,shrunken log2 fold change
1,RRIRWRPPRLPRPRPRPPDRPRP,0.166
2,RRIRMRPPRLPRPRPRPDVSPRP,2.14
3,RRIRARPPRLPRPRPRPLDFPRP,0.173
4,RRIRRRPPRLPRPRPRPRSPPRP,0.49
5,RRIRLRPPRLPRPRPRPKMWPRP,0.485
6,RRIRMRPPRLPRPRPRPIELPRP,-0.04
7,RRIRARPPRLPRPRPRPIFLPRP,-0.0119
8,RRIRQRPPRLPRPRPRPSVQPRP,-0.0622
9,RRIRKRPPRLPRPRPRPPQTPRP,0.559
10,RRIRKRPPRLPRPRPRPPMDPRP,0.587
11,RRIRFRPPRLPRPRPRPCKVPRP,0.0595
12,RRIRCRPPRLPRPRPRPVNQPRP,-0.174
13,RRIRMRPPRLPRPRPRPEIEPRP,0.0729
14,RRIRIRPPRLPRPRPRPNSHPRP,-0.866
15,RRIRWRPPRLPRPRPRPGLLPRP,0.403
16,RRIRPRPPRLPRPRPRPDYQPRP,-0.211
17,RRIRSRPPRLPRPRPRPKTWPRP,-0.0488
18,RRIRRRPPRLPRPRPRPDQNPRP,0.327
19,RRIRRRPPRLPRPRPRPIRYPRP,0.0578
20,RRIRTRPPRLPRPRPRPCHEPRP,-0.0167
21,RRIRNRPPRLPRPRPRPSPGPRP,0.431
22,RRIRVRPPRLPRPRPRPPFIPRP,-0.23
23,RRIRGRPPRLPRPRPRPNVWPRP,0.728
24,RRIRYRPPRLPRPRPRPECAPRP,-0.126
25,RRIRQRPPRLPRPRPRPLFFPRP,-0.00141

row,Sequence,shrunken log2 fold change
1,RRIRHRPPRLPRPRPRPFTVPRP,-0.0532
2,RRIRSRPPRLPRPRPRPRQIPRP,-0.066
3,RRIRRRPPRLPRPRPRPLYLPRP,0.926
4,RRIRTRPPRLPRPRPRPRFVPRP,-0.279
5,RRIRHRPPRLPRPRPRPYFIPRP,-1.14
6,RRIRRRPPRLPRPRPRPFDEPRP,0.0762
7,RRIRQRPPRLPRPRPRPDMCPRP,-0.225
8,RRIRKRPPRLPRPRPRPNPNPRP,0.179
9,RRIRGRPPRLPRPRPRPWRNPRP,0.297
10,RRIRSRPPRLPRPRPRPGKEPRP,-0.0291
11,RRIRRRPPRLPRPRPRPFWFPRP,-0.138
12,RRIRLRPPRLPRPRPRPVFHPRP,-0.143
13,RRIRHRPPRLPRPRPRPWDTPRP,-0.164
14,RRIRPRPPRLPRPRPRPINTPRP,-0.844
15,RRIRNRPPRLPRPRPRPKNPPRP,0.0494
16,RRIRERPPRLPRPRPRPNCKPRP,-0.832
17,RRIRKRPPRLPRPRPRPCVMPRP,0.0542
18,RRIRIRPPRLPRPRPRPPKTPRP,-0.00537
19,RRIRARPPRLPRPRPRPKGRPRP,0.368
20,RRIRCRPPRLPRPRPRPSPRPRP,0.485
21,RRIRRRPPRLPRPRPRPPHKPRP,1.77
22,RRIRKRPPRLPRPRPRPCAHPRP,0.0754
23,RRIRWRPPRLPRPRPRPRLHPRP,0.191
24,RRIRKRPPRLPRPRPRPNRPPRP,0.0563
25,RRIRYRPPRLPRPRPRPRWKPRP,-0.295

row,Sequence,shrunken log2 fold change
1,RRIRRRPPRLPRPRPRPMWMPRP,0.0619
2,RRIRSRPPRLPRPRPRPLHWPRP,0.197
3,RRIRNRPPRLPRPRPRPLMEPRP,-0.0667
4,RRIRQRPPRLPRPRPRPPNWPRP,0.358
5,RRIRFRPPRLPRPRPRPMHEPRP,0.085
6,RRIRFRPPRLPRPRPRPSFNPRP,-0.792
7,RRIRRRPPRLPRPRPRPSWTPRP,0.46
8,RRIRARPPRLPRPRPRPTWYPRP,-0.00985
9,RRIRYRPPRLPRPRPRPNYQPRP,-0.79
10,RRIRDRPPRLPRPRPRPGNNPRP,-0.125
11,RRIRVRPPRLPRPRPRPSVQPRP,-0.0929
12,RRIRERPPRLPRPRPRPRTNPRP,0.00565
13,RRIRHRPPRLPRPRPRPTAKPRP,0.0616
14,RRIRWRPPRLPRPRPRPMMQPRP,0.195
15,RRIRERPPRLPRPRPRPSYMPRP,-0.0864
16,RRIRWRPPRLPRPRPRPYNRPRP,-1.09
17,RRIRFRPPRLPRPRPRPTYHPRP,-0.428
18,RRIRHRPPRLPRPRPRPWVTPRP,0.0283
19,RRIRERPPRLPRPRPRPPGAPRP,0.573
20,RRIRIRPPRLPRPRPRPLLSPRP,-0.483
21,RRIRFRPPRLPRPRPRPLYLPRP,-0.826
22,RRIRLRPPRLPRPRPRPAQQPRP,0.0982
23,RRIRWRPPRLPRPRPRPDMCPRP,0.262
24,RRIRQRPPRLPRPRPRPNIFPRP,-0.496
25,RRIRCRPPRLPRPRPRPGMFPRP,-0.462

row,Sequence,shrunken log2 fold change
1,RRIRWRPPRLPRPRPRPMHKPRP,0.219
2,RRIRLRPPRLPRPRPRPPKTPRP,0.175
3,RRIRFRPPRLPRPRPRPTSQPRP,-0.0191
4,RRIRFRPPRLPRPRPRPCTFPRP,-0.0554
5,RRIRHRPPRLPRPRPRPNFCPRP,-0.0463
6,RRIRIRPPRLPRPRPRPDWDPRP,-0.318
7,RRIRMRPPRLPRPRPRPVTQPRP,0.317
8,RRIRKRPPRLPRPRPRPSHMPRP,-0.0291
9,RRIRWRPPRLPRPRPRPPEKPRP,0.269
10,RRIRMRPPRLPRPRPRPKYLPRP,-0.278
11,RRIRGRPPRLPRPRPRPKCWPRP,1.09
12,RRIRPRPPRLPRPRPRPYRKPRP,0.0208
13,RRIRLRPPRLPRPRPRPSCMPRP,-0.362
14,RRIRYRPPRLPRPRPRPRWNPRP,-0.102
15,RRIRMRPPRLPRPRPRPRQSPRP,0.982
16,RRIRGRPPRLPRPRPRPIAVPRP,0.892
17,RRIRWRPPRLPRPRPRPFKNPRP,-0.274
18,RRIRYRPPRLPRPRPRPKPAPRP,-0.0511
19,RRIRFRPPRLPRPRPRPDMTPRP,-0.0215
20,RRIRVRPPRLPRPRPRPEVMPRP,0.344
21,RRIRNRPPRLPRPRPRPAGVPRP,0.329
22,RRIRNRPPRLPRPRPRPSLLPRP,-0.19
23,RRIRPRPPRLPRPRPRPHCAPRP,0.228
24,RRIRKRPPRLPRPRPRPFIRPRP,-0.21
25,RRIRNRPPRLPRPRPRPSNNPRP,-0.96
